Laboratory results taken from paper PMC5452337.

Tests used:
Experiment in all cases: co-IP; lysates of CHO GABABR1b/R2 cells transiently expressing KCC2-GFP constructs or GFP, CHAPS buffer; anti-GFP as the precipitating antibody; blots probed for GABABR1 (quantified against FL-KCC2 = 100%) or transferrin receptor
[1] = target: KCC2 deletion mutant NTD + TMD fused to GFP (rat)
[2] = target: KCC2 deletion mutant TMD + CTD fused to GFP (rat)
[3] = target: KCC2 transmembrane domain (TMD) fused to GFP (rat)
KCC2 transmembrane domain (TMD) fused to GFP (rat), sequence (Q63633 97-640): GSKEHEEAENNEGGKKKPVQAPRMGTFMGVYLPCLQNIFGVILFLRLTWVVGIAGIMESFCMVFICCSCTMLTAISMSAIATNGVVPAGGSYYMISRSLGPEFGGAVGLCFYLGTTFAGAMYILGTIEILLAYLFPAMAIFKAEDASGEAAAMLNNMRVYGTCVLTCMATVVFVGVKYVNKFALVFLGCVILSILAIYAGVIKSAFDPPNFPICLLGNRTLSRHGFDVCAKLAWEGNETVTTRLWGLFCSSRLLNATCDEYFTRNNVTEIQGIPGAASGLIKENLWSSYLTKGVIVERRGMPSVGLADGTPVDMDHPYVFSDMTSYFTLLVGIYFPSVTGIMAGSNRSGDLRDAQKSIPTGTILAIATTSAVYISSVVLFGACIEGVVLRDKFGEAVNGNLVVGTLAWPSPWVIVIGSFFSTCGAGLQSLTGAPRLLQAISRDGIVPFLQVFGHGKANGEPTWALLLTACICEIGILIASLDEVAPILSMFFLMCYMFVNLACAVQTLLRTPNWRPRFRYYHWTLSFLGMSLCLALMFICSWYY

KCC2 deletion mutant NTD + TMD fused to GFP (rat), sequence (Q63633 1-640, stated change not applied): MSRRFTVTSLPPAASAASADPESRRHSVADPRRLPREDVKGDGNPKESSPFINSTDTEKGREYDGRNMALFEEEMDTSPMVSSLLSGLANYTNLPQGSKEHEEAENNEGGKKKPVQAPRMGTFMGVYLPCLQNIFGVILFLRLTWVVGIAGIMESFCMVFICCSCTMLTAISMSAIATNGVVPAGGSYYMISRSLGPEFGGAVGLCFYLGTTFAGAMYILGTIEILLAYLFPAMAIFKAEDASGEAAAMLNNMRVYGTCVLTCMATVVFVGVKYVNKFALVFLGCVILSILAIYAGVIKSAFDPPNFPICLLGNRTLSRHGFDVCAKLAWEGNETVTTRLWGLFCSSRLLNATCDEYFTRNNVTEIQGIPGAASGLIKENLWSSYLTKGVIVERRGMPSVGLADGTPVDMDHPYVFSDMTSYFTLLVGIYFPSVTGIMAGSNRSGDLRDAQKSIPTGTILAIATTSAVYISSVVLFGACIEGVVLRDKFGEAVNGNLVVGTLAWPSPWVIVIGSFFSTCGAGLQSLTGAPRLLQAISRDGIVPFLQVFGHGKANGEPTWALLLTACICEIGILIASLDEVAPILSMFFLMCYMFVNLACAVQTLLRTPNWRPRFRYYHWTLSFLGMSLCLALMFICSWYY
KCC2 deletion mutant TMD + CTD fused to GFP (rat), sequence (Q63633 whole entry, stated change not applied, the tested form may be a part): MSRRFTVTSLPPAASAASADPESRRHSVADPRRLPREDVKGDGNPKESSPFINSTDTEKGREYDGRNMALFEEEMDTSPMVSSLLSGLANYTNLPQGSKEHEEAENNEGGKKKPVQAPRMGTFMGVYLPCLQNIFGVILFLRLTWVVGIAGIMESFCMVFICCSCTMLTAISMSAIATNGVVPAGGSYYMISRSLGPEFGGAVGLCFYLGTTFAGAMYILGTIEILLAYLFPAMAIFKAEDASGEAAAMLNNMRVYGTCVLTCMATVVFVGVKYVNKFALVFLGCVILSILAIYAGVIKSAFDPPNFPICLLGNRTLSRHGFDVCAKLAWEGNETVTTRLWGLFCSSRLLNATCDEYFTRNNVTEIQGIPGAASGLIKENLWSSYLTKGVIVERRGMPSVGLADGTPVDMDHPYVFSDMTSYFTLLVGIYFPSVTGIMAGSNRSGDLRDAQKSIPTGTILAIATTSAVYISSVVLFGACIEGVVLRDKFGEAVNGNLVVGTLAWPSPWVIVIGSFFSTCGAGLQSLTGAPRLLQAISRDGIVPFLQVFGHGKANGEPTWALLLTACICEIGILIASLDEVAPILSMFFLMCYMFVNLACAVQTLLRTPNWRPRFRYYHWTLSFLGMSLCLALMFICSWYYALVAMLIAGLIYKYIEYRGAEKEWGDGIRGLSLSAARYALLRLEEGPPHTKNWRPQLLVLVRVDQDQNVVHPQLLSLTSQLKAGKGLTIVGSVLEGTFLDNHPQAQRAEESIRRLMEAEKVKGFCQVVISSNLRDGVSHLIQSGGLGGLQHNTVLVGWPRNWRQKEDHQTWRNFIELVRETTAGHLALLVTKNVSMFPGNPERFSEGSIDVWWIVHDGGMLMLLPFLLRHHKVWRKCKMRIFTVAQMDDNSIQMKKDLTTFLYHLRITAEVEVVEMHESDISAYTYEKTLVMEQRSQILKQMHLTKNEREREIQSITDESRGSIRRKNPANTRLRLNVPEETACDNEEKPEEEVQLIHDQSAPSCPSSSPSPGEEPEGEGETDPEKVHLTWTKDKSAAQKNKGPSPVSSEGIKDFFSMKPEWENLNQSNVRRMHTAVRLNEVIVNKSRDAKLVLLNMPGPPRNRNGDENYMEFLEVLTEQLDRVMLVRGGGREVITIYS

What does the source list for “GABAB receptor of rat GABABR1b and GABABR2, stably expressed in CHO cells (from UniProt Q9Z0U4-2 20-960; O88871 41-940) (complex)”?
relative amount of GABABR detected after isolation with the GFP antibody (FL-KCC2 = 100%) [1]: 68 % of FL-KCC2; relative amount of GABABR detected after isolation with the GFP antibody (FL-KCC2 = 100%) [2]: 36 % of FL-KCC2; relative amount of GABABR detected after isolation with the GFP antibody (FL-KCC2 = 100%) [3]: 76 % of FL-KCC2
